Source: paper PMC10638432, “Biodistribution and function of coupled polymer-DNA origami nanostructures”

Target: recombinant human TNF-alpha (biotinylated, R&D Systems BT210) (human, UniProt P01375 77-233)
Test: flow cytometry (FACS) bead binding; TT linker did not affect binding; PBS-/- (no Ca/Mg) with 0.005% Tween-20, 1 h at 37 C, biotinylated TNFa on streptavidin magnetic beads; pH not stated
Conditions: protein: commercial; tags: biotin; chain copies: 3; label: 5' ATTO647N

recombinant human TNF-alpha (biotinylated, R&D Systems BT210), sequence (P01375 77-233): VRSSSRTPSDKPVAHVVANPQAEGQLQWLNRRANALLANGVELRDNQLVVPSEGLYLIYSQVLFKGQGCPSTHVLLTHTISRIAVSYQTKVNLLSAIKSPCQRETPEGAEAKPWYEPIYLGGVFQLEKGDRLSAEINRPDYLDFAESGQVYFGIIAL

B1: TNFa aptamer polyT linker (hTNFa long rod aptamer) (ssDNA)
DNA: TTTGGTGGATGGCGCAGTCGGCGACAA
binding result: binds
